Test results reported in the supplement of paper PMC9170038.

Tested on: K4 kissing-loop RNA reporter
Test: apparent KD of K4 kissing-loop reporter; higher = weaker reporter binding
Settings: Eterna round: R107; input ligand: theophylline 20 uM
Description: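 RNA-MaP round R107: designed RNA switches with theophylline, tryptophan, arginine or FMN aptamers are transcribed on-chip within common flanks. They are titrated with a labelled K4 kissing-loop RNA reporter in RNA-MaP buffer (100 mM Tris pH 7.5, 80 mM KCl, 4 mM MgCl2), without ligand or with the indicated ligand. Median apparent KD per design.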
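Also: bound reporter read as fluorescence of individual clusters on recovered sequencing chips by microscopy, with normalized cluster intensities fitted with a binding model.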

| Sequence | apparent KD of K4 kissing-loop reporter |
| --- | --- |
| GGAGGAGAAUAUGAUACCAGCAGAGAGAGAGAGGAAGUAUAGUGAUGUUAUAUGUGAGAAUGCCCUUGGCAGCAUAACAUGAAGG [whbob_SS_Theo_B_sa90] | 454 nM |
| GGCCGGAAGGCGAGCGCUCCCACUCCGGAAGGAGCGCCCGUAAGGGCAGGUAGGUCGCCGGAGUGAUGUUCCGGUGGAGGGCUCG [#2 Exclusion - Arginine A Attempt #21 (Inspired by Omei)] | 302 nM |
| AGUGUGCAAAAGCACACUCAGUACAAGGACAAGGAUAUCUACUAAUAGAGAAGGUGUCCUUUCCUUAGUGAUGUUAAGGAACUGA [Omei KL FMN A SS D v3] | 657 nM |
| AAAGAUCUUCUAGAAACUAGAAGAUCAAGAGAGGAUAUCCGAAUUCGGAGAAGGCUCACUAAGUGAUGUUUGGAGGGAAUCCCAA [AK1 SS FMN A] | 1290 nM |
| AGAGUUAAUUAGUCAUUUUUCACAUUAAGUCAGGAUAUCGUAUUUUCGAGAAGGGACACAUGCUAGUGAUGUUAGCUAUUUCUCA [JR_Nu_ExcFMNA_Sub021] | 105 nM |
| CCAGGACGAUGAGGAUGAUGAAUUACUGAAGGAGCGCAUAUGGUUGCAGGUAGGUCGCGGUGAACAAGUAUAGUGAUGUUAUGCC [SSArgA.V] | 519 nM |
| UGGGUUGGAAGUGAUGUUUCUCUAAGUGAUACCAGACAAAAGAAAGUCCCUUGGCAGCACAAUGAUGCCAAGGAAACGGCAUGAU [#16 K4 Theophylline A Same State] | 250 nM |
| AAGGUCACCACUACAGUGAUGUUGUGGGAGCAGGAUAUGCAGAAAUGCAGAAGGGCUCGCUCCCGGUGACCGAAUGAAACAUUCA [Omei KL FMN A SS A v5] | 765 nM |
| ACGUCAUAUGUAAUGGUGGUUUCGAUCGAUACCAGUAGCGAGAGUUACCCUUGGCAGCGACAUGAGUGAUGUUCAUGUAUGAAGA [KL-XTheo-A2 #analogue] | 120 nM |
| UAAGGGUUAUGUCCUCGGUGCGAAGAGCUCCGAGGACCGGUACGGCCGCCACUCGGAAGUUCUGAGUGAGGGAGUGAUGUUCCCU [Skye_Ex_TA] | 315 nM |
| CUUGAUGUGUCGGCCGCCACUGGUAUAGGCGGACUAUAACGACAUGAGUGAUGUUCAUGUUCGUCUAGGACCGGGACACAUUGUA [Tryp B SS t4] | 100 nM |

Same assay, conditions: Eterna round: R107; input ligand: tryptophan 2.4 mM

| Sequence | apparent KD of K4 kissing-loop reporter |
| --- | --- |
| UUAUAUUUUAUAUUUAGAUGAUCUAUAGCACGAGGACCGGUACGGCCGCCACUCGAGUGAUGUUCGAGAGCUAUAGAUCAUCAUU [AK2.2 EXC Tryptophan A] | 207 nM |
| CCUGGCGAGGUAACGUGGAUAUCUCGUCGCAAGGAUAUCUGGAAACAGAGAAGGUGCUACAUUACCGGCAGUGAUGUUGCUGACC | 274 nM |
| AAAUAAAUGGCGGCCGCCACUGAACGCCUCCGCGUGGGUAUAUAGUGAUGUUAUAUGGCCGCCAUCAGGACCGGGCCAAAUAAAA [#08 K4 Tryptophan B Same State] | 222 nM |
| AAGGUCACUACUACAGUGAUGUUGUAGGAGCAGGAUAUGCAGAAAUGCAGAAGGGCUCGCUCCAAGUGACCGAAUGAAACAUUCA [Omei KL FMN A SS A v2] | 482 nM |
| CAUCUCAUGAAAUGAGAUGUCAUCAGUGAAGGAGCGCUAUUAGCAGCAGGUAGGUCGCACUGAAGCGGAGUGAUGUUCUGUAUGA [Arg A SS t3] | 150 nM |
| CGCAGUGAUGUUGCGAGUAGCUACAGGGAAGGAGCGCUUUAGUAAGCAGGUAGGUCGCCCACGCAGUGAUGUUGCGUCAUAGGGU [Exclusion Arginine A GF 19] | 88.4 nM |
| CGCUGGGCGAGUGAUGUUCGCUCACGUGAUACCAGUGCCAUCCAACACCCUUGGCAGCACGCGGGCAGUGAUGUUGUCCUUAGUG [Exclusion Theophylline A GF8] | 116 nM |
| UUUCGUUGAAGUGAUACCAGACUUGAAAGUGAUGUUUUCCAAUAAAUUAAAUUAUUAGCUGUCCCUUGGCAGCACAGUUUAUUUA [JR_ExcTheophyB_Sub006] | 186 nM |
| UAACUGCAGUGAUGUUGCAGAUGUCCUGACUAGGAUAUCAGGAAACUGAGAAGGAGUCCCUUCUAAACAUCACAGAAGGAGGACA [[K1]-[K2]-[F1]'-[F1]-[F2]-[F2]'-[K]'-[F]''_Design2] | 442 nM |
| GGUCGAGUGAUGUUCGAUGUAGUGCAUUCAGAGGAUAUAGGAUUGGCUAGAAGGCUGAAACCUUCUUCGAGUGAUGUUCGAGGAU [Same State FMN A GF5] | 77.8 nM |
| UAACUCUUGCAGUGAUGUUGCAAGUAAGCUCAGGAUAUCAGGAAACUGAGAAGGGAGCAUCCUGAGCUUCUGCAAGAGCUCAGAA [KL-SSFMN-A4] | 189 nM |
| CGCGUUGGUUGAGAGGUUGGCGCGAAUGAUACCAGUAUAUAAGAAUACCCUUGGCAGCAUAAGAAAGAUAUAGUGAUGUUGUAUA [SSTheophA.I] | 420 nM |
| AUUUAUUCGUACUUUCAGUGAUGUUGAUAACGAGGACCGGUACGGCCGCCACUCGAUUUGGCGAUUUUGUAUUUUUUAUUCUAUA [JR_SSTryptoA_Sub010] | 317 nM |
| UGUAUGUGAUUUGAUACCAGACCAUCUUGUGAGAAGUGAGUGAUGUUUAUUUUGGUUUGGGUCCCUUGGCAGCAAAUCGCAUACU [KL-SSTheoB23] | 738 nM |
| CCAGCAAAGCUGGUCGCCAAACAACGGGCACGAGGACCGGUACGGCCGCCACUCGUGAGGACGAGUGAUGUUCGUUCACGGGCGA | 302 nM |
| UGAUACCAGACGGCCGCCACUUCCGCAAGUCAAAGACUUGCCAAGGGAAUCGUCCAGUGAUGUUGGAGGACCGGGUCUGGUAUCU [FiskerMod 4 - Jieux - Exclusion - Tryptophan B] | 587 nM |
| UUUUUAUGCAGUGAUGUUGCUAAUAUAACAGAGGAUAUGCAUUAAUGCAGAAGGCUGAAAUACUAUACUUUAAUAUAUUAAAUUU [JR_SSFMNA_Sub015] | 99.5 nM |
| GAGCGGUAGAGGCUACCGCUAUUCUGAGAAGGAGCGCAGAUGACUGCAGGUAGGUCGCUUAGAGCUUGCAGUGAUGUUGCAAGUU [Inzarier] | 181 nM |
| UGGAUAUAGUGAUGUUAUAUAGAGAGGGAUACCAGUUUAGAGAAGAACCCUUGGCAGCCUAAAGAAGUAUCAUUAGAGAAGAAUG [ExTheophyl.An] | 241 nM |
| ACGUAGUUCUAGGAUACCAGCCAAGGAGCGCAGGACAAAAGUCCUGCCGCCAGUGAUGUUGGCCCUUGGCAGCCUAGAACUACGA [Omei KL Theo B Exc B v1] | 160 nM |
| CCAUUCUUUUACGAUACCAGUCUAAUAUAUUUAAUCAAAACCCUCGCCGAGUGAUGUUCGGACCCUUGGCAGCGUCUGCGAGAGG [ettyxtkmullin] | 495 nM |
| UCUGCAAAGUCGGCCGCCACUCCGGGCCCUAUAAAUGGGCGCAGUGAUGUUGCGGCUAGGCCUCUGAGGACCGGGACUUUGUAGA [Atlesoqu] | 246 nM |

| Sequence | apparent KD of K4 kissing-loop reporter |
| --- | --- |
| GCCGUAGAUUGAAGGAGCGGGCCGUAGUGAUGUUACGCCAAGUUGUCUUUUAUUGAUGUGGCCCAGGUAGGUCGCAAUCUACGGC | 273 nM |
| GCCGUAGAUUGAAGGAGCGUUCUUACUGAUUACGGCAGCCGGAAGUGAUGUUUCCAGGUGGAACAGGUAGGUCGCAAUCUACGGC | 92 nM |
| GGCCGCAAGGCGAGCGCUCCCACUCCGGAAGGAGCGCCCGCAAGGGCAGGUAGGUCGCCGGAGUGAUGUUCCGGUGGAGGGCUCG [#2 Exclusion - Arginine A Attempt #16 (Inspired by Omei)] | 338 nM |
| AGAUGACAGGGAGGAUAUCCUAAUAUGGGUGAUGUUAGCGAUGUUGAAGGUGUAGUGAUGUUAUGCGGAGAAGGCCCUGUUGUUU [BDazzled - #23 - Exc. FMN B] | 78.5 nM |
| GUGAAGGAGCUGCAGUGAUGUUGCAGAGACUAGGAUAUCAGGAAACUGAGAAGGAGUCAACUCCUUCACCUAGACAACAUCACUA [[F]''-[K1]-[K2]-[F1]-[F2]-[F2]'-[F1]'-[K]'_Design2] | 187 nM |
| GCUAUGGUAGGAAGGAGCGCUUACUCGUUAAUAAGAGUGAUGUUCGAUAACGAGUAUUUAUAGCAGGUAGGUCGCCUACUAUAGC [Arginine B K4 4] | 199 nM |
| ACGUAGUUCUAGGAUACCAGCCAAGGUCGCCAGGACAAAAGUCCUGGCGCCAGUGAUGUUGGCCCUUGGCAGCCUAGAACUACGA [Omei KL Theo B Exc B v6] | 203 nM |
| GUCCAUGUCCUCAUUCGUGCACUGGACACCAAGGAUAUGUUUAUGGACAGAAGGUGGUUGGGUCAGUGAUGUUGAUAUAAUUAGU [theeternabot_exclusion_KL_FMN_A_24] | 194 nM |
| UAUACACAGGGAGGAUAUGCCCACACAACAACCGAGUGAUGUUCGGACAAUACACAUAAUACACGGGCAGAAGGCCCACAUCACA [SS FNM B Tesla 1] | 139 nM |
| AAUAAGUGUCAGCGAGUGAUGUUCGACGAUACCAGACUCGAUAGAGUCCCUUGGCAGCGUAACGCAUGCCAAACUGGCACAAUAA [#SwitchBubble 8 #K4Early] | 450 nM |
| GGAGGAGAAUAUGAUACCAGCAGAGAGAGAGAGGAAGUAUAGUGAUGUUAUAUGUGAGAAUGCCCUUGGCAGCAUAACAUGAAGG [whbob_SS_Theo_B_sa90] | 159 nM |
| GGCCGGAAGGCGAGCGCUCCCACUCCGGAAGGAGCGCCCGUAAGGGCAGGUAGGUCGCCGGAGUGAUGUUCCGGUGGAGGGCUCG [#2 Exclusion - Arginine A Attempt #21 (Inspired by Omei)] | 186 nM |
| AGUGUGCAAAAGCACACUCAGUACAAGGACAAGGAUAUCUACUAAUAGAGAAGGUGUCCUUUCCUUAGUGAUGUUAAGGAACUGA [Omei KL FMN A SS D v3] | 595 nM |
| AAAGAUCUUCUAGAAACUAGAAGAUCAAGAGAGGAUAUCCGAAUUCGGAGAAGGCUCACUAAGUGAUGUUUGGAGGGAAUCCCAA [AK1 SS FMN A] | 1360 nM |
| AGAGUUAAUUAGUCAUUUUUCACAUUAAGUCAGGAUAUCGUAUUUUCGAGAAGGGACACAUGCUAGUGAUGUUAGCUAUUUCUCA [JR_Nu_ExcFMNA_Sub021] | 56.9 nM |
| CCAGGACGAUGAGGAUGAUGAAUUACUGAAGGAGCGCAUAUGGUUGCAGGUAGGUCGCGGUGAACAAGUAUAGUGAUGUUAUGCC [SSArgA.V] | 631 nM |
| UGGGUUGGAAGUGAUGUUUCUCUAAGUGAUACCAGACAAAAGAAAGUCCCUUGGCAGCACAAUGAUGCCAAGGAAACGGCAUGAU [#16 K4 Theophylline A Same State] | 195 nM |
| AAGGUCACCACUACAGUGAUGUUGUGGGAGCAGGAUAUGCAGAAAUGCAGAAGGGCUCGCUCCCGGUGACCGAAUGAAACAUUCA [Omei KL FMN A SS A v5] | 846 nM |
| ACGUCAUAUGUAAUGGUGGUUUCGAUCGAUACCAGUAGCGAGAGUUACCCUUGGCAGCGACAUGAGUGAUGUUCAUGUAUGAAGA [KL-XTheo-A2 #analogue] | 105 nM |
| UAAGGGUUAUGUCCUCGGUGCGAAGAGCUCCGAGGACCGGUACGGCCGCCACUCGGAAGUUCUGAGUGAGGGAGUGAUGUUCCCU [Skye_Ex_TA] | 306 nM |
| CUUGAUGUGUCGGCCGCCACUGGUAUAGGCGGACUAUAACGACAUGAGUGAUGUUCAUGUUCGUCUAGGACCGGGACACAUUGUA [Tryp B SS t4] | 111 nM |
